In data set [1] the target is T1, TGFβ1 (Homo sapiens, UniProt P01137 P01137:279-390). As to the kind of experiment: cell_activity; PAI-luciferase MLEC, n=4.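 Further: inhibition of TGFβ1-induced luciferase reporter expression in mink lung epithelial cells.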 To be noted: tags: Genentech or R&D Systems; chain copies: 2. On the procedure:
(§1) Mink lung epithelial cells (MLEC) carrying the Pail/luc construct were maintained in DME containing 10% fetal bovine serum and 400 μg/ml G418. MLEC-Pail/luc cells were plated at 3.2×10⁴ cells per well in a 96 well Falcon plate, in 100 μl of DME+10% fetal bovine serum overnight. Media was made from autoclaved water. The cells were washed three times ([…]) in serum free DME plus Solution A (1:1). Solution A is 30 mM Hepes pH 7.6, 10 mM glucose, 3.0 mM KCl, 131 mM NaCl, 1.0 mM disodium phosphate. Samples (100 μl) were added in DME containing 20 mM Hepes pH 7.5, and 0.1% BSA (Fluka, radioimmunoassay grade). All samples were in triplicate. After six hours at 37° C. in a 5% CO₂ incubator the media was removed and cells were washed three times (100 μl each) in cold PBS. Lysis buffer (75 μl) (Analytical Luminescence Laboratory) was added and the plates incubated on ice for 20 min. The plates were sealed and frozen at −80° C. until assayed. Samples (25 μl) were assayed for luciferase activity with the Enhanced Luciferase Assay Kit from Analytical Luminescence Laboratory (San Diego, Calif., USA) according to the manufacturer's instructions using the Berthold Microlumat LB96P luminometer.
(§2) Ligands tested for inhibition of TGFβ1 activity were tested at a minimum of five concentrations. […]

The target of data set [2] is T1, TGFβ1. As to the kind of experiment: filter; second determination 0.2 nM; cell IC50 69-109 nM. The following applies: tags: Genentech; biotinylated version used in bead assay; chain copies: 2.
For data set [3], the target named is T1, TGFβ1. Briefly: cell_activity; also 108 and 69 nM; stimulates at low concentration.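 Further: inhibition of TGFβ1-induced luciferase reporter expression in mink lung epithelial cells.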 To be noted: tags: Genentech or R&D Systems; chain copies: 2. On the procedure: as §1, §2
Data set [4] concerns the target T1, TGFβ1. As to the kind of experiment: cell_activity; second value 201 nM.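 Further: inhibition of TGFβ1-induced luciferase reporter expression in mink lung epithelial cells.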 To be noted: tags: Genentech or R&D Systems; chain copies: 2. On the procedure: as §1, §2
The target of data set [5] is T1, TGFβ1. Briefly: cell_activity; second value 157 nM.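 Further: inhibition of TGFβ1-induced luciferase reporter expression in mink lung epithelial cells.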 To be noted: tags: Genentech or R&D Systems; chain copies: 2. The method, then:
as §1, §2

The target of data set [6] is T1, TGFβ1. As to the kind of experiment: filter; 37 C; cell IC50 20 and 157 nM. The following applies: tags: Genentech; biotinylated version used in bead assay; chain copies: 2.
The target in data set [7] is T1, TGFβ1. As to the kind of experiment: cell_activity; second value 112 nM. To be noted: tags: Genentech or R&D Systems; chain copies: 2. On the procedure:
as §1, §2

In data set [8] the target is T1, TGFβ1. Briefly: filter; boundary experiment. To be noted: tags: Genentech or R&D Systems; chain copies: 2.

T1 sequence (P01137 279-390, one chain of several): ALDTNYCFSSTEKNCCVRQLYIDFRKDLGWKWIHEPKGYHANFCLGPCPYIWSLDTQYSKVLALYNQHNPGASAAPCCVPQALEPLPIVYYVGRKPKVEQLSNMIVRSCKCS

B1: lib3-13 (ssRNA)
RNA: GGGGGAGAACGCGGAUCCGAGCAAUCCCAGGCGCAUAGCUUCCGAGUAGACAGGAGGGAGGGGUGGAUGUGGCGUCUACUCGGUGUCGUGAAGCUUCGCUCUAGAUCUCCCUUUAGUGAGGGUUA
modifications: 2'-NH2 pyrimidines
In turn, B1 came in with an IC50 in data set [1] of 25 nM.

B2: lib4-12 (ssRNA)
RNA: GGGGGAGAACGCGGAUCCUGAGAAGGACGUCGGGGUCAACGGGGUGAGGUGCAGCAGAAAGGGCCGGCACCACAUGACGUAAAAGCUUCGCUCUAGAUCUCCCUUUAGUGAGGGUUA
modifications: 2'-NH2 pyrimidines
With B2, the dissociation constant Kd in data set [2] amounted to 0.4 nM. Moreover, it took 109 nM to reach half-maximal inhibition in data set [3] (IC50).

B3: lib2-6-1-81 (ssRNA)
RNA: GGGGGAGAACGCGGAUCCUGUCUCCACCGCCGAUACUGGGGUUCCUGGGGCCCCUCCAUGCAGGAGGGGGGUGGUUCGGAG
modifications: 2'-NH2-U, 2'-F-C
With B3, the IC50 in data set [4] amounted to 298 nM.

B4: lib4-32 (ssRNA)
RNA: GGGGGAGAACGCGGAUCCGGCAACCCCAGGCGCAUAGCUUCCGAGUAGACAGGCGGGAGGGGUGGAUGUGGCGUCACGAGGAAGCUUCGCUCUAGAUCUCCCUUUAGUGAGGGUUA
modifications: 2'-NH2 pyrimidines
In data set [5], B4 showed an IC50 of 20 nM. In addition, the Kd in data set [6] is 0.8 nM.

B5: lib2-6-1 (ssRNA)
RNA: GGGGGAGAACGCGGAUCCUGUCUCCACCGCCGAUACUGGGGUUCCUGGGGCCCCUCCAUGCAGGAGGGGGGUGGUUCGGAGAAAGCUUCGCUCUAGAUCUCCCUUUAGUGAGGGUUA
modifications: 2'-NH2-U, 2'-F-C
The molecule B5 showed an IC50 in data set [7] of 103 nM. Turning to CUUCCGAGUAGACAGGAGGGAGGGGUGGAUGUGGCGUCUACUC (ssRNA) [lib8-9 boundaries], the binding result in data set [8] is “binds”.

A word on the IC50: it is the concentration that inhibits the measured activity by half. High values mean lower potency, low ones higher potency. One may read the Kd as the equilibrium constant for the complex coming apart. Higher therefore signals a looser complex.

The values above are taken from patent publication US20030180744, “High affinity oligonucleotide ligands to growth factors” (GILEAD SCIENCES, INC., published 2003).
